Experimental findings from patent US20190083585 are described below.

Series [1] concerns fluorescently quenched α-gliadin hexapeptide analogue QXL520-PQPQLP-K(5-FAM)-NH2.
The subject of series [2] is T1, immunodominant α9-gliadin peptide QLQPFPQPQLPY
T1 sequence: QLQPFPQPQLPY

Sequence of glutamine-specific endoprotease EP-B2 (native) (chain, as listed by the source): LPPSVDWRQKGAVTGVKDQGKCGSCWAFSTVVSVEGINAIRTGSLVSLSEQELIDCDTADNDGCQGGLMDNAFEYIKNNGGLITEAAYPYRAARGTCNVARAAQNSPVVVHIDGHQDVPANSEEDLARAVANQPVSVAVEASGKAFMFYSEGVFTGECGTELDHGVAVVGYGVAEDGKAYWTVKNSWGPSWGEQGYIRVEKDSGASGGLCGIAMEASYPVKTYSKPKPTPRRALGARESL

“glutamine-specific endoprotease EP-B2 (native)”: the activity result in the series with Suc-APE-pNA, with Suc-AQP-pNA, in the series on Suc-APR-pNA and in the series on Suc-APQ-pNA was “no activity” each time. In addition, the “activity at pH 4” value in series [1] is “only very low levels of activity were detected”.

With prolyl endopeptidase SC PEP (native), the “catalytic activity at pH 4” value in the series on Suc-APE-pNA, in the series with Suc-AQP-pNA, with Suc-APR-pNA and in the series on Suc-APQ-pNA was “did not exhibit any significant activity” throughout. Also, the “degradation of the peptide after 50 minutes (LC-MS, pH 4, 37° C.)” value in series [2] is “no significant degradation of the peptide was observed”. In addition, the “catalytic efficiency at pH 7” value in the series on Suc-AQP-pNA is on record as 2390 M^-1s^-1. In series [1], the “catalytic efficiency at pH 4” value stood at 1.6 M^-1s^-1. For the same substance, in series [1], the “fold lower level of activity than KumaMax” value is “roughly 350-fold lower level of activity on this substrate than KumaMax”.
